Data from US20200069775A1, “BRAIN OSTEOCALCIN RECEPTOR AND COGNITIVE DISORDERS” (The Trustees of Columbia University in the City of New York, priority 2017, published 2020).

Molecular target: T1, Gpr158 (Mus musculus, UniProt Q8C419)
T1 sequence (Q8C419 25-1200): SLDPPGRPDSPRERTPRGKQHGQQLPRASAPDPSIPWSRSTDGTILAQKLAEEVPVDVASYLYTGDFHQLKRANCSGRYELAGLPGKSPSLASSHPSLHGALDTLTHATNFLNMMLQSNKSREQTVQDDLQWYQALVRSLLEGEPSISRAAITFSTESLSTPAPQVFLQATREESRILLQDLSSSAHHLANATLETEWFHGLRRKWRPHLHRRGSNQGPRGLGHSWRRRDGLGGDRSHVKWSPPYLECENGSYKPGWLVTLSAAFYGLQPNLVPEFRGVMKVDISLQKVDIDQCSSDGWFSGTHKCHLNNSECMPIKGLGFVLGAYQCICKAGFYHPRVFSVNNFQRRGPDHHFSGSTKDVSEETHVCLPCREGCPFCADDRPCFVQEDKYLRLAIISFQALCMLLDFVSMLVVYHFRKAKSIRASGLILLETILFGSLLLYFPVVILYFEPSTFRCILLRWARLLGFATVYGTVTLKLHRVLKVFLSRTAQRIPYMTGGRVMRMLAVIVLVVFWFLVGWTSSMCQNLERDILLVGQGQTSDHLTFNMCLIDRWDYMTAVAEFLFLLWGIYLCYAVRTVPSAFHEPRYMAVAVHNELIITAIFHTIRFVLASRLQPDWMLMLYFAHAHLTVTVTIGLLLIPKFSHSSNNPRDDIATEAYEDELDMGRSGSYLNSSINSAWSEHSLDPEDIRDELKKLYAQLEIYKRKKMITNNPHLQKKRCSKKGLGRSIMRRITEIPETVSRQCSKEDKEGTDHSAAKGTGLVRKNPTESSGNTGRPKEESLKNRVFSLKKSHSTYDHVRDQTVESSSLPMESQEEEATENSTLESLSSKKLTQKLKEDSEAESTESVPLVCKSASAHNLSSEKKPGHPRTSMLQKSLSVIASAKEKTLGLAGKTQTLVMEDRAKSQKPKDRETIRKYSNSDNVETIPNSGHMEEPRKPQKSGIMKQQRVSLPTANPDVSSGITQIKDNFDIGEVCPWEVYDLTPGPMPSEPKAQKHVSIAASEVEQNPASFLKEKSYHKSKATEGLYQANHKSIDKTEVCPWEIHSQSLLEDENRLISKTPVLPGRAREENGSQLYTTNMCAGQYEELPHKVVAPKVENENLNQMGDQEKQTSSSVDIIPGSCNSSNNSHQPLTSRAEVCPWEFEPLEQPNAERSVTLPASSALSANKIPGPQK
Assay: Hippocampal lentiviral sh-Gpr158 knockdown followed by osteocalcin injection, NOR and CFC
Format: in vivo
Parameters: from tissue; host or cells: anterior hippocampus of living 3-month-old C57BL/6J male mice
Procedure: Mice were anesthetized with intra-peritoneal injection of […] (Rompun 2%; Bayer) and placed in a stereotaxic frame (900SL-KOPF). Ophthalmic eye ointment was applied to the cornea to prevent desiccation during surgery. The area around the incision was trimmed and Vetedine solution (Vetoquinol) was appplied. Lentiviruses expressing shRNA targeting Gpr158 or non-effective scramble shRNA in pGFP-C-shLentiVector were injected bilaterally into the anterior hippocampi using the following coordinates: (from bregma) anterior=−2.0 mm, lateral=+/−1.4 mm and height=-1.33 mm. Coordinates were determined using the Mouse Brain in Stereotaxic Coordinates (Paxinos and Franklin, 2008). Two weeks later, osteocalcin (10 ng) or NaCl were injected using the same coordinates. […]
Novel object recognition test (NOR): The NOR paradigm assesses the rodent's ability to recognize a novel object in the environment. […] These objects elicit equal levels of exploration as determined in pilot experiments (Denny, C. A., et al., 2012, Hippocampus 22:1188-1201; Oury, F., et al., 2013, Cell 155:228-241). […] Preference for the novel object is assessed based on the fraction of time that a mouse spends exploring the novel object compared to the familiar object. Exploration is scored from video recordings of each exposure and recorded using the Stopwatch program. […]

- memory performance (NOR) (control (scrambled shRNA) mice, osteocalcin 10 ng in anterior hippocampus): enhanced memory performance
- contextual fear conditioning (CFC) (sh-control vs sh-Gpr158 mice, osteocalcin 10 ng): A similar result was obtained
Substance: osteocalcin: Recombinant osteocalcin bacterially produced, cleaved from the GST subunit; completely undercarboxylated at all three sites; full-length mouse osteocalcin (YLGASVPSPDPLEPTREQCELNPACDELSDQYGLKTAYKRIYGITI)
